Results taken from patent publication US20240141059A1 (Bristol-Myers Squibb, published 2024).
Values joined by “and” are separate entries in the source; they are usually repeats but may differ in a detail not shown here. Equal values may be shown once. Read-outs that look alike come from different tables or passages of the source.

T1: hCD73-his (human, UniProt P21589 26-546)
T1 construct: range 26-546; also called full length extracellular domain of human-CD73
T1 sequence (looked up): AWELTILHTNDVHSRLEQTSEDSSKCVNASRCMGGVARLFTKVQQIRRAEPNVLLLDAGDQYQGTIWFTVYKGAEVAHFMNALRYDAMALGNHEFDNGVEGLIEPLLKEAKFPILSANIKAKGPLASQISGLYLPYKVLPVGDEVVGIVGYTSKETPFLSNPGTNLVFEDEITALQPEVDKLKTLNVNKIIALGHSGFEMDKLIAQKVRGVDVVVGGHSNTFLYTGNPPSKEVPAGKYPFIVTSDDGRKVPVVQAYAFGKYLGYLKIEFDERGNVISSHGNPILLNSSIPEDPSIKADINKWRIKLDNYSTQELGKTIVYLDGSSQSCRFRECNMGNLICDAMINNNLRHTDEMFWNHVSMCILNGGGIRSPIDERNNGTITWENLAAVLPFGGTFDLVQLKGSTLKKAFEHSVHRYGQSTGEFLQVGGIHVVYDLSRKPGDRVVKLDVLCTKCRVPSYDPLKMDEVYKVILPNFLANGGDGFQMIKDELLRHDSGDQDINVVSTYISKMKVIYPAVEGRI

T2: human CD73 on cells (human, UniProt P21589 27-549)
T2 sequence (looked up): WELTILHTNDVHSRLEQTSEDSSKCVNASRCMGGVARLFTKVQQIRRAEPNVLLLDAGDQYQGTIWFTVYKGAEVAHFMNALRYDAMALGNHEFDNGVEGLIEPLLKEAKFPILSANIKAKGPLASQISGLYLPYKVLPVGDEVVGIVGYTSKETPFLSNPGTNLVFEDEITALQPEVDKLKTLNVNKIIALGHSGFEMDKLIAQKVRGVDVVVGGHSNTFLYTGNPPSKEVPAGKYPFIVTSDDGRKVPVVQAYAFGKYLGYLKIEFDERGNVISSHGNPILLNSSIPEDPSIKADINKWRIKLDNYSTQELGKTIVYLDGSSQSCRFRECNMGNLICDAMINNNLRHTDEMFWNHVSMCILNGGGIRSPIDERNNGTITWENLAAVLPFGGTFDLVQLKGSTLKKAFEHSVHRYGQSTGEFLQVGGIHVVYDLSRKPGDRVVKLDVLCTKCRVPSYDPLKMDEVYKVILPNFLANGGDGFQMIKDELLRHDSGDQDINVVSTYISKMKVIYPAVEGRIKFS

T3: N-hCD73-his (human, UniProt P21589 26-336, limits assumed)
T3 construct: monomeric in solution by SEC-MALS; also called N-terminal domain of hCD73
T3 sequence (looked up): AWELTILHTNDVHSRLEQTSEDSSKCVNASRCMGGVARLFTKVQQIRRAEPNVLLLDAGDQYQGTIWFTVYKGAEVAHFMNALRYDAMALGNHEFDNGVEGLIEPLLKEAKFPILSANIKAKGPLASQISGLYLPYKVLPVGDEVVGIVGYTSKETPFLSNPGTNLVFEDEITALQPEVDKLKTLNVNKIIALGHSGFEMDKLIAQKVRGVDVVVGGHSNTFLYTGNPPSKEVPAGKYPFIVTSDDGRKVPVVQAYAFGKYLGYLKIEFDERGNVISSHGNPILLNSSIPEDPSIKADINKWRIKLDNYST

T4: human GITR (human, UniProt Q9Y5U5 26-241)
T4 sequence (looked up): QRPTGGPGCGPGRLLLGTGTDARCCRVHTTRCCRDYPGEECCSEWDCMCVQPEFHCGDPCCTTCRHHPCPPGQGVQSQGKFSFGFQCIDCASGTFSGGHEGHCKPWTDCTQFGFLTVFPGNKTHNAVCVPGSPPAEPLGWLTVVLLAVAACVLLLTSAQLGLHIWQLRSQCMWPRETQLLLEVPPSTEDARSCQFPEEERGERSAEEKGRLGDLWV

B1: CD73.4-IgG2-C219S (antibody)
heavy: QVQLVESGGGVVQPGRSLRLSCAASGFTFSNYGMHWVRQAPGKGLEWVAVILYDGSNKYYPDSVKGRFTISRDNSKNTLYLQMNSLRAEDTAVYYCARGGSSWYPDSFDIWGQGTMVTVSSASTKGPSVFPLAPCSRSTSESTAALGCLVKDYFPEPVTVSWNSGALTSGVHTFPAVLQSSGLYSLSSVVTVPSSNFGTQTYTCNVDHKPSNTKVDKTVERKSCVECPPCPAPPVAGPSVFLFPPKPKDTLMISRTPEVTCVVVDVSHEDPEVQFNWYVDGVEVHNAKTKPREEQFNSTFRVVSVLTVVHQDWLNGKEYKCKVSNKGLPAPIEKTISKTKGQPREPQVYTLPPSREEMTKNQVSLTCLVKGFYPSDIAVEWESNGQPENNYKTTPPMLDSDGSFFLYSKLTVDKSRWQQGNVFSCSVMHEALHNHYTQKSLSLSPG
light: not shown
notes: also called CD73.4-IgG2CS; CD73.4-IgG2.3
B2: CD73.4-IgG2-C219S-IgG1.1f (antibody)
heavy: QVQLVESGGGVVQPGRSLRLSCAASGFTFSNYGMHWVRQAPGKGLEWVAVILYDGSNKYYPDSVKGRFTISRDNSKNTLYLQMNSLRAEDTAVYYCARGGSSWYPDSFDIWGQGTMVTVSSASTKGPSVFPLAPCSRSTSESTAALGCLVKDYFPEPVTVSWNSGALTSGVHTFPAVLQSSGLYSLSSVVTVPSSNFGTQTYTCNVDHKPSNTKVDKTVERKSCVECPPCPAPPVAGPSVFLFPPKPKDTLMISRTPEVTCVVVDVSHEDPEVKFNWYVDGVEVHNAKTKPREEQYNSTYRVVSVLTVLHQDWLNGKEYKCKVSNKALPSSIEKTISKAKGQPREPQVYTLPPSREEMTKNQVSLTCLVKGFYPSDIAVEWESNGQPENNYKTTPPVLDSDGSFFLYSKLTVDKSRWQQGNVFSCSVMHEALHNHYTQKSLSLSPGK
light: not shown
notes: also called CD73.4-IgG2.3G1.1f-KH; CD73.4-IgG2CS-IgG1.1f
B3: 11F11 (antibody, human IgG2, kappa, V domains shown)
VH: QVQLVESGGGVVQPGRSLRLSCATSGFTFSNYGMHWVRQAPGKGLEWVAVILYDGSNKYYPDSVKGRFTISRDNSKNTLYLQMNSLRAEDTAVYYCARGGSSWYPDSFDIWGQGTMVTVSS
VL: DIQMTQSPSSLSASVGDRVTITCRASQGISSWLAWYQQKPEKAPKSLIYAASSLQSGVPSRFSGSGSGTDFTLTISSLQPEDFATYYCQQYNSYPLTFGGGTKVEIKR
notes: hybridoma derived anti-CD73 antibody, IgG2 constant region; also called 11F11 (IgG2)
B4: GITR.6.G2 (antibody, human IgG2, kappa)
heavy: QVQLVESGGGVVQPGRSLRLSCAASGFTFSSYGMHWVRQAPGKGLEWVAVIWYEGSNKYYADSVKGRFTISRDNSKNTLYLQMNSLRAEDTAVYYCARGGSMVRGDYYYGMDVWGQGTTVTVSSASTKGPSVFPLAPCSRSTSESTAALGCLVKDYFPEPVTVSWNSGALTSGVHTFPAVLQSSGLYSLSSVVTVPSSNFGTQTYTCNVDHKPSNTKVDKTVERKCCVECPPCPAPPVAGPSVFLFPPKPKDTLMISRTPEVTCVVVDVSHEDPEVQFNWYVDGVEVHNAKTKPREEQFNSTFRVVSVLTVVHQDWLNGKEYKCKVSNKGLPAPIEKTISKTKGQPREPQVYTLPPSREEMTKNQVSLTCLVKGFYPSDIAVEWESNGQPENNYKTTPPMLDSDGSFFLYSKLTVDKSRWQQGNVFSCSVMHEALHNHYTQKSLSLSPGK
light: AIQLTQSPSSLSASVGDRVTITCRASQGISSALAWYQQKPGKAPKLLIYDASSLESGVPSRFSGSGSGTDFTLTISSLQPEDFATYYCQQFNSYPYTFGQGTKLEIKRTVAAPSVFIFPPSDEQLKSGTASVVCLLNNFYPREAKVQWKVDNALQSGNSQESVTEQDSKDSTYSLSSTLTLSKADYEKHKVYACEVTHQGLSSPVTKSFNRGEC
B5: CD73.4-IgG2.3-plusTHT (antibody)
heavy: QVQLVESGGGVVQPGRSLRLSCAASGFTFSNYGMHWVRQAPGKGLEWVAVILYDGSNKYYPDSVKGRFTISRDNSKNTLYLQMNSLRAEDTAVYYCARGGSSWYPDSFDIWGQGTMVTVSSASTKGPSVFPLAPCSRSTSESTAALGCLVKDYFPEPVTVSWNSGALTSGVHTFPAVLQSSGLYSLSSVVTVPSSNFGTQTYTCNVDHKPSNTKVDKTVERKSCVETHTCPPCPAPPVAGPSVFLFPPKPKDTLMISRTPEVTCVVVDVSHEDPEVQFNWYVDGVEVHNAKTKPREEQFNSTFRVVSVLTVVHQDWLNGKEYKCKVSNKGLPAPIEKTISKTKGQPREPQVYTLPPSREEMTKNQVSLTCLVKGFYPSDIAVEWESNGQPENNYKTTPPMLDSDGSFFLYSKLTVDKSRWQQGNVFSCSVMHEALHNHYTQKSLSLSPGK
light: not shown
notes: also called mAb-CD73.4-IgG2.3-plusTHT; CD73.4-Vh-hHC-IgG2.3-plusTHT

What was measured:
[1] = molecular target: T1, hCD73-his; assay: SEC-MALS, target:mAb 1:1, 2.5 uM + 2.5 uM
Procedure: (§1) The structure and oligomeric state of CD73/antibody complexes in solution were examined by SEC-MALS and DLS.
(§2) The oligomeric state of CD73/antibody complexes were examined by size-exclusion chromatography coupled to an in-line multi-angle light scattering detector (SEC-MALS). Isocratic separations were performed on a Shodex PROTEIN KW-803 column connected to an Prominence Shimadzu UFLC in buffer containing 200 mM K₂HPO₄, 150 mM NaCl, pH 6.8, containing 0.02% Na azide (0.1 μm filtered) running at 0.5 mL/min. Samples were injected onto the column using a SIL-20AC Prominence Shimadzu® autosampler, and data were obtained from three online detectors connected in series: a Prominence SPD-20AD diode array UV/vis spectrophotometer followed by a Wyatt miniDAWN™ TREOS Multi-Angle Light Scattering Detector then a Wyatt Optilab T-rEX Refractive Index Detector® instrument. Data were collected and analyzed using Astra® (Wyatt) and Labsolutions® (Shimadzu) software.

[2] = molecular target: T2, human CD73 on cells; assay: cell-based or functional assay
[3] = molecular target: T1, hCD73-his; assay: SEC of equimolar mAb + hCD73-his
Procedure: as §2
CD73.4 antibodies having the heavy chain constant regions set forth in Table 14 were also tested for formation of high molecular weight complexes by SEC-MALS and DLS experiments, as described in Example 3.

[4] = molecular target: T2, human CD73 on cells; assay: cell-based or functional assay; remark: listed apart in the source
[5] = molecular target: T1, hCD73-his; assay: DLS, target:mAb 1:1, 2.5 uM + 2.5 uM; unit from the text
Procedure: as §1
Dynamic light scattering (DLS) studies were performed on a Wyatt DynaPro® plate reader in 384 well plates at 25° C. Experimental parameters were 20 acquisitions of 5 s each per measurement, and measurements were recorded in quadruplicate, with the average and standard deviation reported. Intensity autocorrelation functions were fitted using the “Regularization” algorithm in the Dynamics® software (Wyatt Technologies®).

[6] = molecular target: T2, human CD73 on cells; assay: cell-based or functional assay; remark: listed apart in the source
[7] = molecular target: T2, human CD73 on cells; assay: cell-based or functional assay; remark: listed apart in the source
[8] = molecular target: T3, N-hCD73-his; assay: SPR, mAb captured on protein A
Procedure: The affinity of the antibodies for human CD73 was measured to determine whether the change of the constant region affects them. The affinities were determined by Surface Plasmon Resonance (SPR) as follows. […] For these experiments, protein A (Pierce) was immobilized to a density of 3000-4000 RU on flow cells 1˜4 of a CMS sensor chip (GE Healthcare) using standard ethyl(dimethylaminopropyl) carbodiimide (EDC)/N-hydroxysuccinimide (NHS) chemistry, with ethanolamine blocking, in a running buffer of 0.01 M HEPES pH 7.4, 0.15 M NaCl, 3 mM EDTA, 0.005% v/v tween 20. […] The running buffer for the kinetic experiments was 10 mM sodium phosphate, 130 mM sodium chloride, 0.05% tween 20, pH 7.1. The surfaces were regenerated after each cycle using two 30 s pulses of 10 mM glycine pH 1.5 at a flow rate of 30 μl/min. Sensogram data was double-referenced and then fitted to a 1:1 Langmuir model using Biacore® T100 evaluation software v2.0.4, to determine the association rate constant (ka), the dissociation rate constant (kd), and the equilibrium dissociation constant (KD).

[9] = molecular target: T4, human GITR; assay: cell-based or functional assay

Row | Binder | MW Peak 1 [1] [kDa] | MW Peak 2 [1] [kDa] | MW Peak 3 [1] [kDa] | UV % Peak1 (<12.9 min) [3] [%] | UV % Peak4 (16.7-19.3 min) [3] [%] | UV % Peak5 (>19.3 min) [3] [%] | internalization T1/2, Calu6 [4] [min] | internalization T1/2, NCI-H292 [4] [min] | internalization Ymax, Calu6 [4] [%] | internalization Ymax, NCI-H292 [4] [%] | internalization T1/2, Calu6 [6] [min] | internalization T1/2, NCI-H292 [6] [min] | internalization Ymax, Calu6 [6] [%] | internalization Ymax, NCI-H292 [6] [%] | also measured
1 | B1 | 3400 | 970 | 480 | 37 | 28.6 | 2.9 | 36 | 16.6 | 75.6 | 78.4 |  |  |  |  | % internalization, Calu6 cells [2]: 88%; % internalization, H228 cells [2]: 94%; % internalization, H2030 cells [2]: 89%; % internalization, HCC15 cells [2]: 94%; internalization T1/2, Calu6 cells [2]: 6.5 min; internalization T1/2, H228 cells [2]: 13.8 min; internalization T1/2, H2030 cells [2]: 3.7 min; internalization T1/2, HCC15 cells [2]: 3.1 min; UV % Peak3 (15.1-16.7 min) [3]: 7.7%
2 | B2 | 3600 | 1100 | 580 |  |  |  | 34 | 15.8 | 76.8 | 77.6 | 21 | 16.6 | 81 | 90.3 | Rh [5]: 31.2 nm
3 | B3 |  |  |  |  |  |  |  |  |  |  |  |  |  |  | internalization EC50, Calu6 cells, 2 h [7]: 0.58 nM; internalization Ymax (% of 100 nM 11F11), Calu6 cells [7]: 98%; Kd [8]: 1.6 nM and 0.56 nM; koff [8]: 0.00042 s⁻¹ and 0.00016 s⁻¹; kon [8]: 260000 M⁻¹ s⁻¹ and 290000 M⁻¹ s⁻¹
4 | B4 |  |  |  |  |  |  |  |  |  |  |  |  |  |  | NFKB signaling (phospho-p65), CD4+ T cells, EC50 [9]: 12.8 nM; NFKB signaling (phospho-p65), CD4+ T cells, Emax [9]: 69%; NFKB signaling (phospho-p65), CD8+ T cells, EC50 [9]: 9 nM; NFKB signaling (phospho-p65), CD8+ T cells, Emax [9]: 85%
5 | B5 |  |  |  | 30.6 | 33.7 | 3.2 |  |  |  |  | 21.3 | 17.6 | 81.2 | 91.4 | 
